Assay results taken from the RNAGym collection of RNA variant scans (doi:10.1073/pnas.2313332121).
Fewer inactive variants are shown than the library holds.

B1: TPR 5TU (parent)
chain: GGAUCUUCUCGAUCUAACAAAAAAGACAAAUCUGCCACAAAGCUUGAGAGCAUCUUCGGAUGCAGAGGCGGCAGCCUUCGGUGGCGCGAUAGCGCCAACGUUCUCAACUAUGACACGCAAAACGCGUGCUCCGUUGAAUGGAGUUUAUCAUG

Variants of: B1
Assay: polymerase ribozyme fitness, log enrichment relative to wild type (log ratio); higher = more active; in vitro selection for triplet polymerase activity
How it was run: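 A heterodimeric triplet polymerase ribozyme had each of its subunits mutagenized by PCR into a library, which was transcribed. One round of in vitro selection, done in triplicate, annealed each library with a biotinylated primer, its partner subunit and triplets, then incubated it frozen at −7 °C before gel excision of extended constructs, streptavidin-bead capture and RT-PCR. Fitness is the logarithm of genotype enrichment relative to wild-type enrichment, based on Illumina sequencing of inputs and outputs and inverse-variance-weighted replicate averages. A base-2 logarithm is used, and genotypes were kept only with ≥10 input reads and ≥1 read per output.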

Variant	polymerase ribozyme fitness (log ratio)
GGAUCUUCUCGAUCUAACAAAAAAGACAAAUCUGCCACAAAGCUAGAGAGCGUCUUCGGAUGCAGAGGCGGCAGCCUUCGGGGGCGCGAUAGCGCCAACGUUCUCAACUAUGACGCGCAAAACGCGUGCUCCGUUUAAUGAAGUUUAUCAGG [U45A A52G U82G A115G G136U G141A U151G]	≤ -4.2
GGAUCUUCUCGAUCUAACAAAAAAGACAAAUCUGCCACAAAGCUAGAGAGCAUCUUCGGAUGCAGAGGAGGCAGCCUUCGGUGGCGCCAUAGCGCCCACGUUCUCAACUAUGACACGCAAAACGGGUGCUCCGUUGAAUGGAGUUUAUCAUG [U45A C69A G88C A97C C125G]	≤ -4.2
GGAUCUUCUCGAUCUAACAAAAAAGACAAAUCUGCCACAAAGCUAGAGAGCAUCUUCGGAUGUAGAGGCGGCAGCCUUCGGUGGCGCGAUAGCGCCAACGUUCUCAACUAUGACACGCAACACGCGUGCUCCGUUGAAUGGAGUUUAUCAUG [U45A C63U A121C]	-3.18
GGAUCUUCUCGAUCUAACAAAAAAGACAAAUCUGCCACAAAGCUAGUGAGCAUCUUCGGAUGCAGAGGCGGCAGCCUUCUGUGGCGCGAAAGCGCCAACGUUCUCAACUAUGACACGCAAAACGCGUGCUCCGUUGAAUGGAGUUUAUCAUG [U45A A47U G80U U90A]	≤ -4.2
GGAUCUUCUCGAUCUAACAAAAAAGACAAAUCUGCCACAAAGCUAGAGAGCAUUUUCGGAAGCAGAGGCGGCAGCCUUCGGUGGUGCGAUAGCGCCAACGUUCUCAACUAUGACACGCAAAACGCGUGCUCCGUUGAAUGGAGUUUAUCAUG [U45A C54U U61A C85U]	≤ -4.2
GGAUCUUCUCGAUCUAACAAAAAAGACAAAUCUGCCACAAAGCUAGAGAGCAUCUUCGGAUGCAGAGGCGGCAGCCUUCGGUGGCGCGAUAGCGCCAACGUUCUCAACUAUGACACGCAAGACGCGUGCUGCGUUGAAUUGAGUUUAUCAUG [U45A A121G C131G G140U]	≤ -4.2
GGAUCUUCUCGAUCUAACAAAAAAGACAAAUCUGCCACAAAGCUAGAGAGCAUCUUCGGAUGCAGAGGCGGCAGCCUUCGGUGGCGCGAUAGCGCCAAAGUUCUCAACUAUGACACGCAAAACGCGUGCUCCGUUGAAUGGAGUUUAUCAUG [U45A C99A]	≤ -4.2
GGAUCUUCUCGAUCUAACAAAAAAGACAAAUCUGCCACAAAGCUAGAGUGCAUCUUCGGAUGCAGAGGCGGCAGCCUUCGGUGGCGCGAUAGCGCCAACGUUCUCAACUAUGACACGCAAAACGCGUGCUCCGUUGAAUGGAGUUUAUCAUG [U45A A49U]	≤ -4.2
GGAUCUUCUCGAUCUAACAAAAAAGACAAAUCUGCCACAAAGCUAGAGAGCAUCUUCGGAUGCAGAGGCGGUAGCCUUCGGUGGCGCGAUAGCGCCAACGUUCUCAACUAUGACACGCAAAACGCGUGCUCCGUUGAAUGGAGUUUAUCAUG [U45A C72U]	≤ -4.2
GGAUCUUCUCGAUCUAACAAAAAAGACAAAUCUGCCACAAAGCUAGAGAGCAUCUUCGGAUGCAGAGGCGGCAGCCUUCGGUGGCGCGAUAGCGCUAACGUUCUCAACUAUGACACGCAAAACGCGUGCUCCGUUGAAUGGAGUUUAUCAUG [U45A C96U]	-2.86
GGAUCUUCUCGAUCUAACAAAAAAGACAAAUCUGCCACAAAGCUAGAGAGCAUCUUCGGAUGCAGAGGCGGCAGCCUUCGGUGGCGCGAUAGCGCAAACGUUCUCAACUAUGACACGCAAAACGCGUGCUCCGUUGAAUGGAGUUUAUCAUG [U45A C96A]	-2.56
GGAUCUUCUCGAUCUAACAAAAAAGACAAAUCUGCCACAAAGCUAGAGAGCCUCUUCGGAUGCAGAGGCGACAGCCUUCGGUGGCGCGAUAGCGCCAAAGUUCUCAACUAUGACACGCAAAACGCGUGCUCCUUUGAAUGGAGUGUAUCAUG [U45A A52C G71A C99A G133U U145G]	≤ -4.2
GGAUCUUCUCGAUCUAACAAAAAAGACAAAUCUGCCACAAAGCUAGAGAGCAUCUUCGGAUGCAGAGGCGGCAGCCUUCGGUGGAGCGAUAGUGCUAACGUUCUCAACUAUGACACGAAAAACGCGUGCUCAGUUGAAUGGAGUUUAUCAUG [U45A C85A C93U C96U C118A C132A]	≤ -4.2
GGAUCUUCUCGAUCUAACAAAAAAGACAAAUCUGCCACAAAGCUAGAGCGCAUCUUCGGAUGCAGAGGCGGCAGCCUUCGGUGACGCGAUAGCGCCAACGUUCUCAACUAUGACACGCAAAACGCGUGCUCCGUUGAAUGGAGUUUAUCAUG [U45A A49C G84A]	≤ -4.2
GGAUCUUCUCGAUCUAACAAAAAAGACAAAUCUGCCACAAAGCUAGAGAGCAUCUUCGGAUGCAGAGGCGGCAGCCUUCGGUGGCGCGAUAGUGCCAACGUUCUCAACUAUGACACGCAAAACGCGUGCUCCGUUGAAUGGAGUUUUUCAUG [U45A C93U A147U]	-2.81
GGAUCUUCUCGAUCUAACAAAAAAGACAAAUCUGCCACAAAGCUAGAGAGCAUCUUCGGAUGCAGAGGCGGCAGCCUUCGGUGGCGCGAUAGCGCCAAAGUUCUCUACUAUGACACGCAAUACGCGUGCUCCGUUGAAUGGAGUUUAUGAUA [U45A C99A A106U A121U C149G G152A]	-4.01
GGAUCUUCUCGAUCUAACAAAAAAGACAAAUCUGCCACAAAGCUAGAGAGCAUAUUCGGAUGCAGAGGCGGCAGCCUUCGGUGGCGCGAUAGCGACAACGUUCUCAACUAUGGCACGCAAAACGCGUGAUCCGUUGAAUGGAGUUUAUCAUG [U45A C54A C95A A113G C129A]	≤ -4.2
GGAUCUUCUCGAUCUAACAAAAAAGACAAAUCUGCCACAAAGCUAGAGAGCAUCUUCGGAUGCAGAGGCGGCAGCCUUCGGUGGUGCGAUAGCGCCAACGUUCUCAACUAUGACACGCAAAACGCGUGCUCCGUUGAAUGGAGUUUAUCAUG [U45A C85U]	-3.1
GGAUCUUCUCGAUCUAACAAAAAAGACAAAUCUGCCACAAAGCUAGAGAGCAUCUUCGGAUGCAGAGGCGGCAGCCUUCGGUGGAGGGAUAGCGCCAACGUUCUCAACUAUGAAACGCAAAACGCGUGCUCCGUUGCAUGGAGUUUAUCAUG [U45A C85A C87G C114A A137C]	≤ -4.2

Variant	polymerase ribozyme fitness (log ratio)
GGAUCUUCUCGAUCUAACAAAAAAGACAAAUCUGCCACAAAGCUAGAGAGCUUCUACGGAUGCAGAGGCGGCAGCUUUCGGUGGCGCGAUAGCGCCAACGUUCUCAACUAUGACACGCAAAACGCGUGCUCCGUUGAAUGGAGUUUAUCAUG [U45A A52U U56A C76U]	≤ -4.2
GGAUCUUCUCGAUCUAACAAAAAAGACAAAUCUGCCACAAAGCUAGAGAGCAUCUUAGGAUGCAGAGGCGGCAGCCUUCGGUGGCGCGAUAGCGCUAACGUUCUCAACUAUGACACGCAAAACACGUGCUCCGUUGAAUGGAGUUUAUCAUG [U45A C57A C96U G124A]	-3.11
GGAUCUUCUCGAUCUAACAAAAAAGACAAAUCUGCCACAAAGCUAGAGAGCAUCUUCGGAUGCAGAGGCGGCAGCCUUCGGUGGCGCGAUAGCGCCAACGUUCUCAACUAUGACACGCAAAACGCGUGCUCCGUUGAAUGGGGUUUAUCAUG [U45A A142G]	-2.94
GGAUCUUCUCGAUCUAACAAAAAAGACAAAUCUGCCACAAAGCUAGAGAGUAUUUUCGGAUGCAGAGGCGGCAGCCUUCGGUGGCGCGAUAUCGCCAACGUUCUCAACUAUGACACGCAAAACGCGUGCUCCGUUGAAUGGAGUUUAUCAUG [U45A C51U C54U G92U]	-3.95
GGAUCUUCUCGAUCUAACAAAAAAGACAAAUCUGCCACAAAGCUAGAGAGCAUCUUCGGAUGCCGAGGCGGCAGCCUUCGGUGGCGCGAUAGAGCCAACGUUCUCAACUAUGACACGCAAAACGCGUGCUCCGUUGAAUGGAGUUUAUCAUG [U45A A64C C93A]	≤ -4.2
GGAUCUUCUCGAUCUAACAAAAAAGACAAAUCUGCCACAAAGCUAGAGAGCAUCUUCGGAUGCAGAGGAGGCAGCCUUCGGUGGCGCGAUAGCGUCAAGGUUCUCAACUAUUAUACGCAAAACGCGUGCUCCGUUGAAUGGAGUUUUUCAUG [U45A C69A C95U C99G G112U C114U A147U]	≤ -4.2
GGAUCUUCUCGAUCUAACAAAAAAGACAAAUCUGCCACAAAGCUAGAGAGCAUCUUCGGAUGCAGAGGCGGAAGCCUUCGGUGGCUCGAUAGCGCCAAUGUUCUCAACUAUGACACGCAAAACGCGUGCUCCGUUGAAUGGAGUUUAUCAUG [U45A C72A G86U C99U]	≤ -4.2
GGAUCUUCUCGAUCUAACAAAAAAGACAAAUCUGCCACAAAGCUAGAGAGCAUCUUCGGAUGCAGUGGCGACAGCCUUCGGUGGCGCGAUAGCGCCAACGUUCUCAACUAUGACACGCAAAACGCGUGCUCCGUUGAAUGGAGUUUAUCAUG [U45A A66U G71A]	≤ -4.2
GGAUCUUCUCGAUCUAACAAAAAAGACAAAUCUGCCACAAAGCUAGAGAGCAUCUUCGGAUGCAGAGGCGGCGGCCUUCGGUCGUGCGAUAGCGCCAACGUUCUCAACUAUGACACGCAAAACGCGUGCUCCGUUGAAUGGAGUUUAUCAUG [U45A A73G G83C C85U]	≤ -4.2
GGAUCUUCUCGAUCUAACAAAAAAGACAAAUCUGCCACAAAGCUAGAGAGCAUCUUCGGAUGCAGAGGCGGCUGCCUUCGGUGGCGCGAUAGCGCCAACGUUCUCAACUAUGACACGCAAAACGCGUGCUCCGUUGAAUGGAGUUUAUCAUG [U45A A73U]	≤ -4.2
GGAUCUUCUCGAUCUAACAAAAAAGACAAAUCUGCCACAAAGCUAGAGAGUAUCUUCGGAUGCAGAGGCGGCAACCUUCGGUGGCGCGAUAGCGACAACGUUCUCAACUAUGACACGCAAAACGCGUGCUCCGUGGAAUGGAGUUUAUCAUG [U45A C51U G74A C95A U135G]	≤ -4.2
GGAUCUUCUCGAUCUAACAAAAAAGACAAAUCUGCCACAAAGCUAGAGAGCAUCUUCGGAUGCAGAGGCGGCAGCCUUCGGUGGCGCGAUCGCGGCAACGUUCUCAACUAUGACACGCAAAACGCGUGCUCCGUUGAAUGGUGUUUAUCAUG [U45A A91C C95G A142U]	≤ -4.2
GGAUCUUCUCGAUCUAACAAAAAAGACAAAUCUGCCACAAAGCUAGAGAGCAUCUUCGGAUGCAGAGGCGGCAGCUUUCGGUGGCGCGAUAGCGCCAUCCGUCUCUACUAUGACACGCAAAACGCGUGCUCCGUUGAAUGGAGUUUAUCAUG [U45A C76U A98U G100C U101G A106U]	-4
GGAUCUUCUCGAUCUAACAAAAAAGACAAAUCUGCCACAAAGCUAGAGAGAAUCUUCGGAUGCAGAGGCGGCAGCCUUCGGUGACGCGAUAGCGCCAACGUUCUCAACUAUGACACGCAAAACGCGUGCUCCGUUGAAUGGAGUUUAUCAUG [U45A C51A G84A]	≤ -4.2
GGAUCUUCUCGAUCUAACAAAAAAGACAAAUCUGCCACAAAGCUAGAGAGCCUCUUCGGAUGCAGAGGCGGCAGCCUUCGGUGGCGCGAUAGCGCCAACGUUCUCAACUAUGACACGCAAAACGCGUGCUCCGUUGAAUGGAGUUUAUCAUG [U45A A52C]	≤ -4.2
GGAUCUUCUCGAUCUAACAAAAAAGACAAAUCUGCCACAAAGCUAGAGAGCAUCUUCGGGUGCAGAGGCGGCAGCCUUCGGUGGCGCGAUAGCAGCAACGUUCUCAACUAUGACACGCAAAACGCGUGCUCCGUUGAAUGGAGCUUAUCAGG [U45A A60G G94A C95G U144C U151G]	≤ -4.2
GGAUCUUCUCGAUCUAACAAAAAAGACAAAUCUGCCACAAAGCUAGAGAGCAUCUUCGGAUGCAGAGGCGGCUGCCUUCGGUAGCGCGAUAGCGCCAACGUUCUCAACUAUGACACGCAAAACGCGUUCUCCGUUGAAUGGAGUUUAUCAAG [U45A A73U G83A G128U U151A]	≤ -4.2
GGAUCUUCUCGAUCUAACAAAAAAGACAAAUCUGCCACAAAGCUAGAGAGCAUCUUCGGAUGCAGAGGCGGCAGUCUUCGGUGGCGCGAAAGUGCCAACGUUCUCAACUAUGACACGCUAAACGCGUGCUCCGUUGAAUGCAGUUUAUCAUG [U45A C75U U90A C93U A119U G141C]	≤ -4.2
GGAUCUUCUCGAUCUAACAAAAAAGACAAAUCUGCCACAAAGCUAGAGAGCAUCUUCGGAUGCAGAGGCGGCAGCCUUCGGUGGCGCGAUAGCGCCAACGUUCUCAACUAUGACCCGCAAAACGCGUGCUCCGUUGAAUGGAGUUUAUCAUG [U45A A115C]	≤ -4.2
